Source: US20210388102A1 (IMMUNOGEN, published 2021)

T1: His-tagged soluble human ADAM9 (shADAM9-His) (human, UniProt Q13443 206-697)
T1 construct: Contains an extracellular portion of human ADAM9; also called huADAM9-His; His peptide-tagged soluble huADAM9
T1 sequence: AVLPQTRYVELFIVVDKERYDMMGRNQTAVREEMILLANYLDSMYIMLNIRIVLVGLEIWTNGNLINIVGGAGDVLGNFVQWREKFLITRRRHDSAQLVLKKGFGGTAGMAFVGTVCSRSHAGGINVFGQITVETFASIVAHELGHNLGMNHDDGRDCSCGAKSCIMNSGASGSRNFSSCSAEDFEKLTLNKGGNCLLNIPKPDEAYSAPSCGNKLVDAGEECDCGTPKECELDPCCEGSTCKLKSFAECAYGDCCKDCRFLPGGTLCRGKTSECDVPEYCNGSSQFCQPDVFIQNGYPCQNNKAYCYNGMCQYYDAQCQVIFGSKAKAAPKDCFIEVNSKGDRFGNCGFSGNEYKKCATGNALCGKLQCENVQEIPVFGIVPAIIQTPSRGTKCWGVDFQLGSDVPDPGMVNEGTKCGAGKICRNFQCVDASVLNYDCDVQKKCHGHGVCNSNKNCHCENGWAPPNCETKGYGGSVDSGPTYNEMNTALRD

T2: human ADAM9 (huADAM9) on cells (human, UniProt Q13443 206-819)
T2 construct: The pro-domain is said to be cleaved (Arg-205/Ala-206) in the mature protein; also called Cho-K/huADAM9; Cho-K/hu ADAM9.2
T2 sequence: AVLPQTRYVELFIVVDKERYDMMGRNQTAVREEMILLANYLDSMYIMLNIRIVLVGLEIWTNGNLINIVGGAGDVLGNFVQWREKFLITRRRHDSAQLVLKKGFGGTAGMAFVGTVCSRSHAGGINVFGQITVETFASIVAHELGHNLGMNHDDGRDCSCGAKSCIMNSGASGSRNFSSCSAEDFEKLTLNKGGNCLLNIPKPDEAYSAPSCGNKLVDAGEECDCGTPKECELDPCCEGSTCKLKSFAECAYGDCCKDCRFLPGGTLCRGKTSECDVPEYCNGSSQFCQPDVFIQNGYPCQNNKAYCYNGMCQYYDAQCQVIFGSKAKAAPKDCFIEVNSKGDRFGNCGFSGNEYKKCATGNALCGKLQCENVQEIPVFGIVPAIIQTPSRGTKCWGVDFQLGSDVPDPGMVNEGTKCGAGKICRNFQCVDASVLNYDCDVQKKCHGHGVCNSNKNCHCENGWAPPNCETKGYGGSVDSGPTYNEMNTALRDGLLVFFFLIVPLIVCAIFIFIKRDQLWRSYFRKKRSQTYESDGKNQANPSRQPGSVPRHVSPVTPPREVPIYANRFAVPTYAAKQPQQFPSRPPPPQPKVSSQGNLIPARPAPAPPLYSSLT

T3: cynomolgus monkey ADAM9 (cynoADAM9) on cells (cynomolgus monkey, UniProt Q13443 206-819 (human entry))
T3 construct: also called Cho-K/cynoADAM9 clone 2; Cho-K/cynoADAM9 clone #16
T3 chain: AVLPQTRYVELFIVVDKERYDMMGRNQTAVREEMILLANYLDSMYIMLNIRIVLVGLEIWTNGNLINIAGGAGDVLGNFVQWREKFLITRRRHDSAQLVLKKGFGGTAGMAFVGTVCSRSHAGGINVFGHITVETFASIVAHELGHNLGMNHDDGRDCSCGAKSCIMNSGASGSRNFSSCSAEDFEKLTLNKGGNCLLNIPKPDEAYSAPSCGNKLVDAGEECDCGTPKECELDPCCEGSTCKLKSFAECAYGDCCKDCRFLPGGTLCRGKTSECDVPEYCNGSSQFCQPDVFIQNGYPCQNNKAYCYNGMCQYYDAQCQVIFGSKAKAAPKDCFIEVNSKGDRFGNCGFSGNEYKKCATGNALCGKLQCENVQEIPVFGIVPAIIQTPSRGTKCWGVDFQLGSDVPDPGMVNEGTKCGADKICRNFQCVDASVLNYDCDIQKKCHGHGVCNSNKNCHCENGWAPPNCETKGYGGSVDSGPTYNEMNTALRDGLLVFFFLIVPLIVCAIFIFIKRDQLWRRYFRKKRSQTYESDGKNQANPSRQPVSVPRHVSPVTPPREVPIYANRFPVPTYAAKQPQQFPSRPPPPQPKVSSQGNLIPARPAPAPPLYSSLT


Key:
[1] = target: T1, His-tagged soluble human ADAM9 …; assay: SPR (BIACORE), antibody captured, huADAM9-His in flow
Method: The kinetics of binding were determined via BIACORE® analysis binding (normalized 1:1 Langmuir binding model).

[2] = target: T2, human ADAM9 (huADAM9) on cells; assay: FACS, 300-19 cells expressing human ADAM9
Method: (§1) To evaluate the consequence of conjugation on antigen binding, the relative binding affinity of each anti-ADAM9 immunoconjugate and its respective unconjugated antibody to ADAM9 was determined by FACS analysis on 300-19 cells ectopically-expressing either human ADAM9 or cynomolgus ADAM9. Briefly, the ADAM9-expressing 300-19 cells were incubated with dilution series of anti-ADAM9 antibodies or immunoconjugates for 30 min @ 4° C. in FACS buffer (PBS, 0.1% BSA, 0.01% NaN₃), Samples were then washed and incubated with fluorescently-labeled secondary antibody for 30 minutes at 4° C. The normalized mean of fluorescence intensity at each concentration was plotted and the EC50 of binding was calculated using a nonlinear regression analysis (GraphPad Prims 4.0).

[3] = target: T3, cynomolgus monkey ADAM9 (cynoADAM9) on …; assay: FACS, 300-19 cells expressing cynomolgus ADAM9
Method: as §1

[4] = target: T3, cynomolgus monkey ADAM9 (cynoADAM9) on …; assay: FACS, EC50 on 300-19 cynoADAM9 cells over EC50 on 300-19 huADAM9 cells

Row | Kd [1] | koff [1] | kon [1] | EC50 [2] | EC50 [3] | cyno/human (ratio of EC50) [4] | Binder
1 |  |  |  | 1.99 nM | 5.6 nM | 3 | hMAB-A(2C.2)-DGN549 (antibody, human IgG1, kappa, V domains shown, lysine-linked DGN549, sites not given; DGN549-L (compound D2) linked to lysine residues of the antibody, sites not given; average 2.8 mol DGN549/mol antibody) VH: EVQLVESGGGLVKPGGSLRLSCAASGFTFSSYWMHWVRQAPGKGLEWVGEIIPIFGHTNYNEKFKSRFTISLDNSKNTLYLQMGSLRAEDTAVYYCARGGYYYYPRFGWLDYWGQGTTVTVSS VL: DIVMTQSPDSLAVSLGERATISCKASQSVDYSGDSYMNWYQQKPGQPPKLLIYAASDLESGIPARFSGSGSGTDFTLTISSLEPEDFATYYCQQSHEDPFTFGQGTKLEIKR
2 |  |  |  | 2.25 nM | 6.6 nM | 3 | hMAB-A(2I.2)-DGN549 (antibody, human IgG1, kappa, lysine-linked DGN549, sites not given; DGN549-L (compound D2) linked to lysine residues of the antibody, sites not given; average 2.8 mol DGN549/mol antibody) heavy: not shown light: DIVMTQSPDSLAVSLGERATISCKASQSVDYSGDSYMNWYQQKPGQPPKLLIYAASDLESGIPARFSGSGSGTDFTLTISSLEPEDFATYYCQQSHEDPFTFGQGTKLEIKRTVAAPSVFIFPPSDEQLKSGTASVVCLLNNFYPREAKVQWKVDNALQSGNSQESVTEQDSKDSTYSLSSTLTLSKADYEKHKVYACEVTHQGLSSPVTKSFNRGEC

Further lines, the binder ahead of its results:

Row | Binder | Kd [1] | koff [1] | kon [1] | EC50 [2] | EC50 [3] | cyno/human (ratio of EC50) [4]
3 | hMAB-A (2D.2) (antibody, V domains shown, also called MAB-A VH(2D); MAB-A VH(2D.2)) VH: EVQLVESGGGLVKPGGSLRLSCAASGFTFSSYWMHWVRQAPGKGLEWVGEIIPIFGHTNYNEKFKSRFTISLDNSKNTLYLQMGSLRAEDTAVYYCARGGYYYYTGKGVLDYWGQGTTVTVSS VL: DIVMTQSPDSLAVSLGERATISCKASQSVDYSGDSYMNWYQQKPGQPPKLLIYAASDLESGIPARFSGSGSGTDFTLTISSLEPEDFATYYCQQSHEDPFTFGQGTKLEIK | 0.8 nM | 0.00058 s⁻¹ | 690000 M⁻¹ s⁻¹ |  |  | 
4 | chMAB-A-sSPDB-DM4 (antibody, V domains shown, lysine-linked DM4, sites not given; DM4 linked through sulfo-SPDB to lysine residues of the antibody, sites not given; average 3.4 mol DM4/mol antibody) VH: QVQLQQPGAELVKPGASVKLSCKASGYTFTSYWMHWVKQRPGQGLEWIGEIIPINGHTNYNEKFKSKATLTLDKSSSTAYMQLSSLASEDSAVYYCARGGYYYYGSRDYFDYWGQGTTLTVSS VL: DIVLTQSPASLAVSLGQRATISCKASQSVDYDGDSYMNWYQQIPGQPPKLLIYAASDLESGIPARFSGSGSGTDFTLNIHPVEEEDAATYYCQQSHEDPFTFGGGTKLEIK |  |  |  | 0.95 nM | 275 nM | 290
5 | chMAB-A-DGN549 (antibody, V domains shown, lysine-linked DGN549, sites not given; DGN549-L (compound D2) linked to lysine residues of the antibody, sites not given; average 2.7 mol DGN549/mol antibody) VH: QVQLQQPGAELVKPGASVKLSCKASGYTFTSYWMHWVKQRPGQGLEWIGEIIPINGHTNYNEKFKSKATLTLDKSSSTAYMQLSSLASEDSAVYYCARGGYYYYGSRDYFDYWGQGTTLTVSS VL: DIVLTQSPASLAVSLGQRATISCKASQSVDYDGDSYMNWYQQIPGQPPKLLIYAASDLESGIPARFSGSGSGTDFTLNIHPVEEEDAATYYCQQSHEDPFTFGGGTKLEIK |  |  |  | 1.24 nM | 153 nM | 123
